{"source": "the supplement of paper PMC6755084", "parents": {"B1": {"name": "minF1; the commonest letter at each place (parent)", "chain": "GAGACCGCAACTGAAAAGTTGTTATCAGAAATGGATGGGTTGAATTTCTGCACGTAGAAGCAAAAGGC"}}, "data": [{"variants_of": "B1", "assay": "fraction ligated after 30 min (ligated reads / total reads); higher = more ligase activity", "conditions": "with F1*subA RNA substrate (template-directed ligation), 42 °C", "summary_of_the_method": "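Using barcoded primers for reverse transcription and a MiSeq for sequencing, gel-separated ligated and unligated RNAs of minimized ligase ribozyme variants were read, with core-base filtering at quality ≥30. Fraction ligated per variant was defined as ligated reads over total reads.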", "values": [{"variant": "A24G T32C", "fraction ligated": 0.00122}, {"variant": "A24G T32G", "fraction ligated": 0.00185}, {"variant": "A24G T32A", "fraction ligated": 0.00439}, {"variant": "A24T G34T", "fraction ligated": 0.00322}, {"variant": "A24T G34A", "fraction ligated": 0.0316}, {"variant": "A24T G34C", "fraction ligated": 0.00388}, {"variant": "A24C A35G", "fraction ligated": 0.00404}, {"variant": "A24C A35T", "fraction ligated": 0.00376}, {"variant": "A24C A35C", "fraction ligated": 0.00154}, {"variant": "T23C A27C", "fraction ligated": 0.133}, {"variant": "T23C A27G", "fraction ligated": 0.354}, {"variant": "T23C A27T", "fraction ligated": 0.595}, {"variant": "A24C A27G", "fraction ligated": 0.0468}, {"variant": "A24C A27T", "fraction ligated": 0.105}, {"variant": "A24C A27C", "fraction ligated": 0.056}, {"variant": "A24C A30G", "fraction ligated": 0.0241}, {"variant": "A24C A30C", "fraction ligated": 0.034}, {"variant": "A24C A30T", "fraction ligated": 0.0451}, {"variant": "A24T A35C", "fraction ligated": 0.0024}, {"variant": "A24T A35T", "fraction ligated": 0.00183}, {"variant": "A24T A35G", "fraction ligated": 0.00268}, {"variant": "T25A A44T", "fraction ligated": 0.0103}, {"variant": "T25A A44G", "fraction ligated": 0.00172}, {"variant": "T25A A44C", "fraction ligated": 0.00273}, {"variant": "T23A A44C", "fraction ligated": 0.0208}, {"variant": "T23A A44G", "fraction ligated": 0.0455}, {"variant": "T23A A44T", "fraction ligated": 0.0479}, {"variant": "T23G A44G", "fraction ligated": 0.764}, {"variant": "T23G A44C", "fraction ligated": 0.693}, {"variant": "T23G A44T", "fraction ligated": 0.792}, {"variant": "A24G A29T", "fraction ligated": 0.116}, {"variant": "A24G A29C", "fraction ligated": 0.0668}, {"variant": "A24G A29G", "fraction ligated": 0.0952}, {"variant": "A24C A29G", "fraction ligated": 0.0302}, {"variant": "A24C A29C", "fraction ligated": 0.0282}, {"variant": "A24C A29T", "fraction ligated": 0.0449}, {"variant": "A24G G42C", "fraction ligated": 0.00119}, {"variant": "A24G G42T", "fraction ligated": 0.000969}, {"variant": "A24G G42A", "fraction ligated": 0.00347}, {"variant": "A24T C26G", "fraction ligated": 0.0102}, {"variant": "A24T C26A", "fraction ligated": 0.00282}, {"variant": "A24T C26T", "fraction ligated": 0.0111}, {"variant": "T25A G28T", "fraction ligated": 0.0157}, {"variant": "T25A G28C", "fraction ligated": 0.00741}, {"variant": "T25A G28A", "fraction ligated": 0.011}, {"variant": "T25A A30G", "fraction ligated": 0.00687}, {"variant": "T25A A30C", "fraction ligated": 0.0114}, {"variant": "T25A A30T", "fraction ligated": 0.0158}, {"variant": "T23C A29G", "fraction ligated": 0.277}, {"variant": "T23C A29T", "fraction ligated": 0.288}, {"variant": "T23C A29C", "fraction ligated": 0.254}, {"variant": "A24C G42T", "fraction ligated": 0.00251}, {"variant": "A24C G42A", "fraction ligated": 0.00275}, {"variant": "A24C G42C", "fraction ligated": 0.000786}, {"variant": "T25A", "fraction ligated": 0.00703}, {"variant": "T23A G37C", "fraction ligated": 0.00499}, {"variant": "T23A G37A", "fraction ligated": 0.00757}, {"variant": "T23A G37T", "fraction ligated": 0.00942}, {"variant": "T23G G34C", "fraction ligated": 0.00122}, {"variant": "T23G G34T", "fraction ligated": 0.00441}, {"variant": "T23G G34A", "fraction ligated": 0.0854}, {"variant": "T23G T25C", "fraction ligated": 0.153}, {"variant": "T23G T25A", "fraction ligated": 0.0923}, {"variant": "T23G T25G", "fraction ligated": 0.193}, {"variant": "A24G A35C", "fraction ligated": 0.0163}, {"variant": "A24G A35G", "fraction ligated": 0.0312}, {"variant": "A24G A35T", "fraction ligated": 0.00297}, {"variant": "T25A G37T", "fraction ligated": 0.00505}, {"variant": "T25A G37A", "fraction ligated": 0.00183}, {"variant": "T25A G37C", "fraction ligated": 0.00598}, {"variant": "T23C T32A", "fraction ligated": 0.00196}, {"variant": "T23C T32C", "fraction ligated": 0.0041}, {"variant": "T23C T32G", "fraction ligated": 0.00399}, {"variant": "A24T", "fraction ligated": 0.011}, {"variant": "A24G", "fraction ligated": 0.122}, {"variant": "A24C", "fraction ligated": 0.025}, {"variant": "A24G A31G", "fraction ligated": 0.0578}, {"variant": "A24G A31C", "fraction ligated": 0.0105}, {"variant": "A24G A31T", "fraction ligated": 0.0427}, {"variant": "T23A G28T", "fraction ligated": 0.176}, {"variant": "T23A G28A", "fraction ligated": 0.178}, {"variant": "T23A G28C", "fraction ligated": 0.132}, {"variant": "T23C T25A", "fraction ligated": 0.0129}, {"variant": "T23C T25G", "fraction ligated": 0.0076}, {"variant": "T23C T25C", "fraction ligated": 0.0306}, {"variant": "T23C G33A", "fraction ligated": 0.304}, {"variant": "T23C G33T", "fraction ligated": 0.0728}, {"variant": "T23C G33C", "fraction ligated": 0.147}, {"variant": "T25A A31G", "fraction ligated": 0.0139}, {"variant": "T25A A31T", "fraction ligated": 0.00708}, {"variant": "T25A A31C", "fraction ligated": 0.00883}, {"variant": "T25A A27G", "fraction ligated": 0.0139}, {"variant": "T25A A27C", "fraction ligated": 0.0652}, {"variant": "T25A A27T", "fraction ligated": 0.0564}, {"variant": "A24G G37C", "fraction ligated": 0.000862}, {"variant": "A24G G37A", "fraction ligated": 0.00154}, {"variant": "A24G G37T", "fraction ligated": 0.00318}, {"variant": "T25A G33C", "fraction ligated": 0.00366}, {"variant": "T25A G33A", "fraction ligated": 0.0105}, {"variant": "T25A G33T", "fraction ligated": 0.00763}, {"variant": "T23A A35G", "fraction ligated": 0.0122}, {"variant": "T23A A35T", "fraction ligated": 0.0125}, {"variant": "T23A A35C", "fraction ligated": 0.00609}, {"variant": "A24G G33C", "fraction ligated": 0.0566}, {"variant": "A24G G33A", "fraction ligated": 0.294}, {"variant": "A24G G33T", "fraction ligated": 0.0804}, {"variant": "A24G G28C", "fraction ligated": 0.065}, {"variant": "A24G G28A", "fraction ligated": 0.043}, {"variant": "A24G G28T", "fraction ligated": 0.254}, {"variant": "T25A A29G", "fraction ligated": 0.00957}, {"variant": "T25A A29C", "fraction ligated": 0.00458}, {"variant": "T25A A29T", "fraction ligated": 0.015}, {"variant": "T23G", "fraction ligated": 0.8}, {"variant": "T23C", "fraction ligated": 0.318}, {"variant": "A24G A30T", "fraction ligated": 0.058}, {"variant": "A24G A30C", "fraction ligated": 0.0534}, {"variant": "A24G A30G", "fraction ligated": 0.185}, {"variant": "T23G A43C", "fraction ligated": 0.0643}, {"variant": "T23G A43G", "fraction ligated": 0.0673}, {"variant": "T23G A43T", "fraction ligated": 0.0898}, {"variant": "A24G A43C", "fraction ligated": 0.0035}, {"variant": "A24G A43T", "fraction ligated": 0.00328}, {"variant": "A24G A43G", "fraction ligated": 0.00288}, {"variant": "T23G T36C", "fraction ligated": 0.0436}, {"variant": "T23G T36G", "fraction ligated": 0.061}, {"variant": "T23G T36A", "fraction ligated": 0.0286}, {"variant": "T25A C26A", "fraction ligated": 0.00271}, {"variant": "T25A C26G", "fraction ligated": 0.00462}, {"variant": "T25A C26T", "fraction ligated": 0.00642}, {"variant": "T25A A35C", "fraction ligated": 0.0123}, {"variant": "T25A A35T", "fraction ligated": 0.458}, {"variant": "T25A A35G", "fraction ligated": 0.0048}, {"variant": "A24T A27G", "fraction ligated": 0.0839}, {"variant": "A24T A27T", "fraction ligated": 0.171}, {"variant": "A24T A27C", "fraction ligated": 0.105}, {"variant": "A24C G33C", "fraction ligated": 0.00418}, {"variant": "A24C G33T", "fraction ligated": 0.0129}, {"variant": "A24C G33A", "fraction ligated": 0.0216}, {"variant": "A24G A44C", "fraction ligated": 0.00892}, {"variant": "A24G A44T", "fraction ligated": 0.016}, {"variant": "A24G A44G", "fraction ligated": 0.0186}, {"variant": "T23G A35C", "fraction ligated": 0.0185}, {"variant": "T23G A35T", "fraction ligated": 0.031}, {"variant": "T23G A35G", "fraction ligated": 0.247}, {"variant": "T23C A31C", "fraction ligated": 0.328}, {"variant": "T23C A31T", "fraction ligated": 0.517}, {"variant": "T23C A31G", "fraction ligated": 0.392}, {"variant": "T23A T25G", "fraction ligated": 0.00615}, {"variant": "T23A T25A", "fraction ligated": 0.00503}, {"variant": "T23A T25C", "fraction ligated": 0.0136}, {"variant": "T23C C26T", "fraction ligated": 0.0218}, {"variant": "T23C C26A", "fraction ligated": 0.006}, {"variant": "T23C C26G", "fraction ligated": 0.00264}, {"variant": "T23G A27G", "fraction ligated": 0.795}, {"variant": "T23G A27T", "fraction ligated": 0.805}, {"variant": "T23G A27C", "fraction ligated": 0.714}, {"variant": "T23A G33A", "fraction ligated": 0.178}, {"variant": "T23A G33T", "fraction ligated": 0.0493}, {"variant": "T23A G33C", "fraction ligated": 0.0701}, {"variant": "T23G A29G", "fraction ligated": 0.813}, {"variant": "T23G A29T", "fraction ligated": 0.803}, {"variant": "T23G A29C", "fraction ligated": 0.824}, {"variant": "A24T G42C", "fraction ligated": 0.00191}, {"variant": "A24T G42T", "fraction ligated": 0.00308}, {"variant": "A24T G42A", "fraction ligated": 0.00238}, {"variant": "T23C A35G", "fraction ligated": 0.0141}, {"variant": "T23C A35C", "fraction ligated": 0.00513}]}]}
